Patent US10370433B2, “Compositions and methods for diagnosis and treatment of cancer” (BIONTECH AG, priority 2015, dated 2019)
Read-outs that look alike come from different tables or passages of the source.

Tests used:
[1] = human, in vivo, iv
in vivo = conditions: BALB/c nu/nu, mouse, iv, total radioactivity; for tissue uptake at 1 h / tissue uptake at 2 h / tissue uptake at 4 h / tissue uptake at 6 h / tissue uptake at 24 h / tissue uptake at 0.5 h: Mean % ID/g; for tissue uptake at 0.5 h: 30 min

Q: Which “Mean % ID/g, Brain” value (CT26-huSeprase tumors; 30 min) does the source give for `CC[C@H](C)[C@@H]1NC(=O)[C@@H]2CSSC[C@H](NC(=O)[C@H](C)NC(=O)CNC(=O)[C@H](CO)NC(=O)CNC(=O)CON=CC(=O)NCCCC[C@H](NC(=O)[C@H](CO)NC(=O)CNC(=O)[C@H](CO)NC(=O)CNC(=O)[C@H](CCCCNC(=O)C=NOCC(=O)NCC(=O)N[C@@H](CO)C(=O)NCC(=O)N[C@@H](C)C(=O)N[C@H]3CSSC[C@@H]4NC(=O)[C@H](CCCNC(=N)N)NC(=O)CNC(=O)[C@@H]5CCCN5C(=O)[C@@H]5CSSC[C@@H](C(=O)NCC(=O)O)NC(=O)[C@H](Cc6ccc(O)cc6)NC(=O)CNC(=O)[C@H](CC(N)=O)NC(=O)CNC(=O)[C@H](CCCNC(=N)N)NC(=O)[C@H](CSSC[C@H](NC(=O)[C@H](CC(=O)O)NC(=O)[C@@H]6CCCN6C(=O)CNC(=O)[C@H](CCCNC(=N)N)NC(=O)CNC(=O)[C@@H]6CCCN6C(=O)[C@H]([C@@H](C)O)NC(=O)[C@H](Cc6c[nH]c7ccccc67)NC(=O)[C@H](CC(N)=O)NC(=O)[C@H](CO)NC(=O)[C@H](Cc6ccc(O)cc6)NC(=O)[C@@H]6CCCN6C3=O)C(=O)N[C@@H](CCCNC(=N)N)C(=O)N[C@@H](CCCNC(=N)N)C(=O)N[C@@H](CC(=O)O)C(=O)N[C@@H](CO)C(=O)N[C@@H](CC(=O)O)C(=O)N5)NC(=O)[C@H]([C@@H](C)CC)NC4=O)NC(=O)[C@H](CO)NC(=O)CNC(=O)[C@H](CO)NC(=O)CNC(=O)[C@H](CCCCNC(=O)C=NOCC(=O)NCC(=O)N[C@@H](CO)C(=O)NCC(=O)N[C@@H](C)C(=O)N[C@H]3CSSC[C@@H]4NC(=O)[C@H](CCCNC(=N)N)NC(=O)CNC(=O)[C@@H]5CCCN5C(=O)[C@@H]5CSSC[C@@H](C(=O)NCC(=O)O)NC(=O)[C@H](Cc6ccc(O)cc6)NC(=O)CNC(=O)[C@H](CC(N)=O)NC(=O)CNC(=O)[C@H](CCCNC(=N)N)NC(=O)[C@H](CSSC[C@H](NC(=O)[C@H](CC(=O)O)NC(=O)[C@@H]6CCCN6C(=O)CNC(=O)[C@H](CCCNC(=N)N)NC(=O)CNC(=O)[C@@H]6CCCN6C(=O)[C@H]([C@@H](C)O)NC(=O)[C@H](Cc6c[nH]c7ccccc67)NC(=O)[C@H](CC(N)=O)NC(=O)[C@H](CO)NC(=O)[C@H](Cc6ccc(O)cc6)NC(=O)[C@@H]6CCCN6C3=O)C(=O)N[C@@H](CCCNC(=N)N)C(=O)N[C@@H](CCCNC(=N)N)C(=O)N[C@@H](CC(=O)O)C(=O)N[C@@H](CO)C(=O)N[C@@H](CC(=O)O)C(=O)N5)NC(=O)[C@H]([C@@H](C)CC)NC4=O)NC(=O)[C@H](CO)NC(=O)CNC(=O)[C@H](CO)NC(=O)CNC(=O)CN3CCN(CC(=O)O)CCN(CC(=O)O)CCN(CC(=O)O)CC3)C(=O)O)C(=O)N3CCC[C@H]3C(=O)N[C@@H](Cc3ccc(O)cc3)C(=O)N[C@@H](CO)C(=O)N[C@@H](CC(N)=O)C(=O)N[C@@H](Cc3c[nH]c4ccccc34)C(=O)N[C@@H]([C@@H](C)O)C(=O)N3CCC[C@H]3C(=O)NCC(=O)N[C@@H](CCCNC(=N)N)C(=O)NCC(=O)N3CCC[C@H]3C(=O)N[C@@H](CC(=O)O)C(=O)N[C@H]3CSSC[C@H](NC1=O)C(=O)N[C@@H](CCCNC(=N)N)C(=O)NCC(=O)N[C@@H](CC(N)=O)C(=O)NCC(=O)N[C@@H](Cc1ccc(O)cc1)C(=O)N[C@H](C(=O)NCC(=O)O)CSSC[C@H](NC(=O)[C@H](CC(=O)O)NC(=O)[C@H](CO)NC(=O)[C@H](CC(=O)O)NC(=O)[C@H](CCCNC(=N)N)NC(=O)[C@H](CCCNC(=N)N)NC3=O)C(=O)N1CCC[C@H]1C(=O)NCC(=O)N[C@@H](CCCNC(=N)N)C(=O)N2` (single isomer, unassigned) [^177Lu-(MC-FA-012)3, metal not drawn] here?
A: 0.6895 % ID/g

Q: What about the “Mean % ID/g, Injection site” value (CT26-huSeprase tumors; 30 min) of the same compound?
A: 4.2434 % ID/g

Q: And the “Mean % ID/g, Intestine” value (CT26-huSeprase tumors; 30 min)?
A: 0.7435 % ID/g

Q: What about the “Mean % ID/g, Kidneys” value (CT26-huSeprase tumors; 30 min) of the same compound?
A: 286.7812 % ID/g

Q: What about the “Mean % ID/g, Muscle” value (CT26-huSeprase tumors; 30 min) of the same compound?
A: 0.0589 % ID/g

Q: What about the “Mean % ID/g, Spleen” value (CT26-huSeprase tumors; 30 min) of the same compound?
A: 0.9253 % ID/g

Q: And the “Mean % ID/g, Tumor” value (CT26-huSeprase tumors; 30 min)?
A: 9.8546 % ID/g

Q: And the “Mean % ID/g, Brain” value (CT26-huSeprase tumors; 1 h)?
A: 0.2284 % ID/g

Q: What about the “Mean % ID/g, Injection site” value (CT26-huSeprase tumors; 1 h) of the same compound?
A: 15.2418 % ID/g

Q: What about the “Mean % ID/g, Intestine” value (CT26-huSeprase tumors; 1 h) of the same compound?
A: 0.5079 % ID/g

Q: What about the “Mean % ID/g, Muscle” value (CT26-huSeprase tumors; 1 h) of the same compound?
A: 0.0423 % ID/g

Q: And the “Mean % ID/g, Spleen” value (CT26-huSeprase tumors; 1 h)?
A: 0.5493 % ID/g

Q: What about the “Mean % ID/g, Tumor” value (CT26-huSeprase tumors; 1 h) of the same compound?
A: 6.7929 % ID/g

Q: And the “Mean % ID/g, Brain” value (CT26-huSeprase tumors; 2 h)?
A: 0.5818 % ID/g

Q: What about the “Mean % ID/g, Intestine” value (CT26-huSeprase tumors; 2 h) of the same compound?
A: 1.0902 % ID/g

Q: What about the “Mean % ID/g, Kidneys” value (CT26-huSeprase tumors; 2 h) of the same compound?
A: 272.3888 % ID/g

Q: And the “Mean % ID/g, Muscle” value (CT26-huSeprase tumors; 2 h)?
A: 0.0317 % ID/g

Q: And the “Mean % ID/g, Spleen” value (CT26-huSeprase tumors; 2 h)?
A: 0.6561 % ID/g

Q: And the “Mean % ID/g, Tumor” value (CT26-huSeprase tumors; 2 h)?
A: 8.1504 % ID/g

Q: What about the “Mean % ID/g, Brain” value (CT26-huSeprase tumors; 4 h) of the same compound?
A: 0.3159 % ID/g

Q: And the “Mean % ID/g, Intestine” value (CT26-huSeprase tumors; 4 h)?
A: 0.2913 % ID/g

Q: And the “Mean % ID/g, Kidneys” value (CT26-huSeprase tumors; 4 h)?
A: 245.1877 % ID/g

Q: What about the “Mean % ID/g, Muscle” value (CT26-huSeprase tumors; 4 h) of the same compound?
A: 0.0241 % ID/g

Q: And the “Mean % ID/g, Spleen” value (CT26-huSeprase tumors; 4 h)?
A: 0.5931 % ID/g

Q: What about the “Mean % ID/g, Tumor” value (CT26-huSeprase tumors; 4 h) of the same compound?
A: 7.7667 % ID/g

Q: What about the “Mean % ID/g, Brain” value (CT26-huSeprase tumors; 6 h) of the same compound?
A: 0.2159 % ID/g

Q: What about the “Mean % ID/g, Intestine” value (CT26-huSeprase tumors; 6 h) of the same compound?
A: 0.9309 % ID/g

Q: And the “Mean % ID/g, Kidneys” value (CT26-huSeprase tumors; 6 h)?
A: 259.4467 % ID/g

Q: And the “Mean % ID/g, Muscle” value (CT26-huSeprase tumors; 6 h)?
A: 0.1259 % ID/g

Q: What about the “Mean % ID/g, Spleen” value (CT26-huSeprase tumors; 6 h) of the same compound?
A: 0.6287 % ID/g

Q: What about the “Mean % ID/g, Tumor” value (CT26-huSeprase tumors; 6 h) of the same compound?
A: 7.8057 % ID/g

Q: What about the “Mean % ID/g, Brain” value (CT26-huSeprase tumors; 24 h) of the same compound?
A: 0.2151 % ID/g

Q: And the “Mean % ID/g, Intestine” value (CT26-huSeprase tumors; 24 h)?
A: 0.3347 % ID/g

Q: And the “Mean % ID/g, Kidneys” value (CT26-huSeprase tumors; 24 h)?
A: 213.4107 % ID/g

Q: And the “Mean % ID/g, Muscle” value (CT26-huSeprase tumors; 24 h)?
A: 0.0253 % ID/g

Q: What about the “Mean % ID/g, Spleen” value (CT26-huSeprase tumors; 24 h) of the same compound?
A: 0.4561 % ID/g

Q: And the “Mean % ID/g, Tumor” value (CT26-huSeprase tumors; 24 h)?
A: 5.8505 % ID/g

Q: And the “Mean % ID/g, Kidneys” value (CT26-huSeprase tumors; mouse, in vivo)?
A: 222.3177 % ID/g

Q: And the signal in tumor (CT26-huSeprase tumors; mouse, in vivo)?
A: 9.9-5.9

Q: And the tumor targeting (CT26-huSeprase tumors; mouse, in vivo)?
A: specific tumor targeting

Q: And the acute nephrotoxicity [1]?
A: no acute nephrotoxicity

Q: And the tissue uptake at 1 h (in vivo)?
A: 0.67 %ID/g

Q: And the tissue uptake at 2 h (in vivo)?
A: 0.607 %ID/g

Q: And the tissue uptake at 4 h (in vivo)?
A: 0.451 %ID/g

Q: And the tissue uptake at 6 h (in vivo)?
A: 0.648 %ID/g

Q: And the tissue uptake at 24 h (in vivo)?
A: 0.189 %ID/g

Q: And the tissue uptake at 0.5 h (in vivo; Blood)?
A: 1.35 %ID/g

Q: What about the tissue uptake at 1 h (in vivo; Blood) of the same compound?
A: 0.36 %ID/g

Q: What about the tissue uptake at 2 h (in vivo; Blood) of the same compound?
A: 0.135 %ID/g

Q: And the tissue uptake at 4 h (in vivo; Blood)?
A: 0.042 %ID/g

Q: And the tissue uptake at 6 h (in vivo; Blood)?
A: 0.0374 %ID/g

Q: And the tissue uptake at 24 h (in vivo; Blood)?
A: 0.0429 %ID/g

Q: And the tissue uptake at 0.5 h (in vivo; Heart)?
A: 0.615 %ID/g

Q: What about the tissue uptake at 1 h (in vivo; Heart) of the same compound?
A: 0.187 %ID/g

Q: And the tissue uptake at 2 h (in vivo; Heart)?
A: 0.128 %ID/g

Q: What about the tissue uptake at 4 h (in vivo; Heart) of the same compound?
A: 0.102 %ID/g

Q: And the tissue uptake at 6 h (in vivo; Heart)?
A: 0.0876 %ID/g

Q: What about the tissue uptake at 24 h (in vivo; Heart) of the same compound?
A: 0.0641 %ID/g

Q: And the tissue uptake at 2 h (in vivo; Injection site)?
A: 2.87 %ID/g

Q: What about the tissue uptake at 4 h (in vivo; Injection site) of the same compound?
A: 2.61 %ID/g

Q: What about the tissue uptake at 6 h (in vivo; Injection site) of the same compound?
A: 1.57 %ID/g

Q: What about the tissue uptake at 24 h (in vivo; Injection site) of the same compound?
A: 0.983 %ID/g

Q: What about the tissue uptake at 0.5 h (in vivo; Liver) of the same compound?
A: 0.668 %ID/g

Q: What about the tissue uptake at 1 h (in vivo; Liver) of the same compound?
A: 0.398 %ID/g

Q: What about the tissue uptake at 2 h (in vivo; Liver) of the same compound?
A: 0.44 %ID/g

Q: And the tissue uptake at 4 h (in vivo; Liver)?
A: 0.41 %ID/g

Q: What about the tissue uptake at 6 h (in vivo; Liver) of the same compound?
A: 0.431 %ID/g

Q: And the tissue uptake at 24 h (in vivo; Liver)?
A: 0.363 %ID/g

Q: And the tissue uptake (in vivo; signal in kidney)?
A: 287 %ID/g
